Laboratory results as given in paper PMC7267773, “CCDC61/VFL3 Is a Paralog of SAS6 and Promotes Ciliary Functions” (Structure(London, England:1993), 2020).
Where a chain is given by its changes, count along the chain named. In names and notes the source's numbering stands.

Legend:
[1] = molecular target: the molecule itself; assay: AUC; sedimentation equilibrium, 12, 4 and 1.3 mg/ml, 11,600, 19,700 and 34,000 rpm, 4°C; dimer to monomers
[2] = molecular target: the molecule itself; assay: AUC; velocity sedimentation, approximately 480 μM (7.9 mg/ml), 20 mM Tris-HCl pH 8.0, 150 mM NaCl, 2 mM DTT, 50,000 rpm, 4°C; c(s) distribution
[3] = molecular target: the molecule itself; assay: crystal structure; zCCDC61^1-170, 4.62 mg/ml, 100 mM Citric acid pH 5.0, 1 M LiCl, sitting drop, 20°C
[4] = molecular target: the molecule itself; assay: SEC-MALS; Superdex S200 10/300, 10mM Tris-HCl pH 7.4, 150mM NaCl, room temperature; loaded at 1, 6.5 and 65 mg/ml (wild type) and 1, 6.8 and 73 mg/ml (F129E/D130A)

B1: N-terminal head domain of human CCDC61 (hCCDC61^1-143) (domain or fragment)
chain: GSMDQPAGLQVDYVFRGVEHAVRVMVSGQVLELEVEDRMTADQWRGEFDAGFIEDLTHKTGNFKQFNIFCHMLESALTQSSESVTLDLLTYTDLESLRNRKMGGRPGSLAPRSAQLNSKRYLILIYSVEFDRIHYPLPLPYQGKP
notes: extra residues Gly-Ser left at the N-terminus after the His-GST tag was cleaved with tev protease; gene codon optimized for E. coli and synthesized; The crystal (PDB 6HXT) was of the seleno-methionine-substituted protein; also called hCCDC61 head domain; source: E. coli BL21(DE3), purified (GSTrap, tev cleavage, HisTrap flow through, HiTrap Q, PD-10); not shown: His tag, N-terminal, cleaved; GST, …
For B1, the Kd [1] was 170 ± 18 µM and the “stoichiometry N” value [2] was 2.

B2: zebrafish CCDC61 (residues 1–170; zCCDC61^1-170), lipoyl-domain tag removed (domain or fragment, zebrafish (Danio rerio))
chain: GGSMEVGTVVQEEMKFRGSEFAVKVEMAERLLIVEISDVVTADQWRGEFGPAYIEDLTRKTGNFKQFPVFCSMLESAVHKSSDSVTLDLLTYSDLELLRNRKAGVVGRPRAQPQSPALSAKRYLILIYTVEFDRIHYPLPLPYLGKPDPAELQKEIRALRSELKTLGLRGDHK
notes: extra residues Gly-Gly-Ser left at the N-terminus after the tag was cleaved with tev protease; zebrafish (Danio rerio) CCDC61, residues 1-170, head and part of the coiled-coil domain; Homo-tetramer in the crystal; source: E. coli C41, purified (Ni-NTA, tev cleavage, HisTrap FF, HiTrap Q HP flow through, PD-10); not shown: His tag, N-terminal, cleaved; lipoyl domain (Bacillus stearothermophilus …)
With B2 the “stoichiometry N” value [3] was 4.

B3: His6-lipoyl-zCCDC61^1-170 (domain or fragment, zebrafish (Danio rerio), UniProt Q08CF3 1-170, looked up)
chain: MEVGTVVQEEMKFRGSEFAVKVEMAERLLIVEISDVVTADQWRGEFGPAYIEDLTRKTGNFKQFPVFCSMLESAVHKSSDSVTLDLLTYSDLELLRNRKAGVVGRPRAQPQSPALSAKRYLILIYTVEFDRIHYPLPLPYLGKPDPAELQKEIRALRSELKTLGLRGDHK
notes: zebrafish (Danio rerio) CCDC61, residues 1-170; The His6-lipoyl domain tag was retained for SEC-MALS to stabilize the protein at high concentrations; also called Lipo-zCCDC61^1-170; wild-type; source: E. coli C41 in 2xTY, purified (Ni-NTA, SEC, HiTrap Q-FF); not shown: His6, N-terminal, kept; lipoyl domain (Bacillus stearothermophilus dihydrolipoamide acetyltransferase), N-terminal, kept
B3: binds [4].

B4: His6-lipoyl-zCCDC61^(1-170; F129E/D130A) (domain or fragment, zebrafish (Danio rerio), UniProt Q08CF3 1-170, looked up)
chain: B3 chain with F129E, D130A
notes: zebrafish (Danio rerio) CCDC61, residues 1-170, with F129E and D130A; also called Lipo-zCCDC61^(1-170); head-to-head dimerization-deficient mutant; source: E. coli C41 in 2xTY, purified (Ni-NTA, SEC, HiTrap Q-FF); not shown: His6, N-terminal, kept; lipoyl domain (Bacillus stearothermophilus dihydrolipoamide acetyltransferase), N-terminal, kept
B4: binds [4].
